Patent US11584938B2, “Plant EPSPS mutant containing L195P and S247G mutations and encoding gene and use thereof” (GEVOTO LLC, priority 2017, dated 2023)
Substitutions are numbered along the chain they refer to.

B1: G0: wild-type soybean EPSPS, amino acid sequence SEQ ID NO: 2; control (protein)
chain: MAAAEKPSTAPEIVLEPIKDISGTITLPGSKSLSNRILLLAALSEGTTVVDNLLYSEDIHYMLGALRTLGLRVEDDQTTKQAIVEGCGGLFPTIKESKDEINLFLGNAGTAMRPLTAAVVAAGGNASYVLDGVPRMRERPIGDLVAGLKQLGADVDCFLGTNCPPVRVNGKGGLPGGKVKLSGSVSSQYLTALLMAAPLALGDVEIEIVDKLISVPYVEMTLKLMERFGVSVEHSGDWDKFLVHGGQKYKSPGNAFVEGDASSASYFLAGAAVTGGTITVNGCGTSSLQGDVKFAEVLEKMGAKVTWSENSVTVTGPPQDSSGQKVLQGIDVNMNKMPDVAMTLAVVALFANGQTTIRDVASWRVKETERMIAICTELRKLGATVEEGPDYCVITPPEKLNVTAIDTYDDHRMAMAFSLAACGDVPVTIKDPGCTRKTFPDYFEVLERFTRH
modifications: Glycine max
notes: control
B2: G3: soybean EPSPS mutant, SEQ ID NO: 8, mutations L212(195)P and P114(101)S (protein)
chain: B1 chain with P114S, L212P
B3: G1: soybean EPSPS mutant, SEQ ID NO: 4, mutation L212(195)P (protein)
chain: B1 chain with L212P
B4: G2: soybean EPSPS mutant, SEQ ID NO: 6, merely containing the mutation P114(101)S; control (protein)
chain: B1 chain with P114S

system: transgenic rice plants; experiment: glyphosate resistance of the EPSPS mutant in transgenic rice plants sprayed with Roundup 41% ammonium glyphosate; type: in vivo, rice (Nipponbare); conditions: 1× dosage 1060 g/hectare glyphosate sprayed; recorded on 10th day
Excerpt: A method for detecting the glyphosate resistance of G1 (SEQ ID NO: 4) provided in Example 1, G3 (SEQ ID NO: 8) provided in Example 2, G4 (SEQ ID NO: 10) provided in Example 3, the soybean EPSPS mutant G5 (SEQ ID NO: 12) provided in Example 4, T1 (SEQ ID NO: 16) provided in Example 5, T3 (SEQ ID NO: 20) provided in Example 6, T4 (SEQ ID NO: 22) provided in Example 7, T5 (SEQ ID NO: 24) provided in Example 8, the wheat EPSPS mutant T6 (SEQ ID NO: 26) provided in Example 9, R1 (SEQ ID NO: 30) provided in Example 10, R3 (SEQ ID NO: 34) provided in Example 11, R4 (SEQ ID NO: 36) provided in Example 12, R5 (SEQ ID NO: 38) provided in Example 13, and the rice EPSPS mutant R6 (SEQ ID NO: 40) provided in Example 14 in the transgenic rice is as follows:
The plasmids (containing the EPSPS mutation gene) of the monoclonal resistant bacteria of pADV5-EPSPS in Examples 1-7 were extracted by a conventional method, followed by double enzyme digestion by Pac1 and BstEII, the small fragments were collected, and then the small fragments were ligated by using T4 DNA ligase, to the pGVP1 vectors that had undergone the same double enzyme digestion, to obtain a pGVP1-EPSPS vector having a structure as shown in FIG. 23.
EHA105 (Agrobacterium tumefaciens) competent cells were transformed by the pGVP1-EPSPS vector, and single colonies were picked up to perform bacterial colony PCR detection to identify positive strains; then the positive strains were inoculated into 1 mL of YEP culture medium containing 50 μg·mL^−1 kanamycin and 50 μg·mL^−1 rifampin to propagate, and then preserved at −80° C., or used for subsequent experiment.
400 μl of bacterium containing the target gene vector preserved at −80° C. was added to a culture dish of solid culture media containing YEP+50 μg/mL rifampin+50 μg/mL kanamycin, and cultured in the dark at 28° C. for 24 hours, then this bacterium was added to an infection culture medium, and this bacterial solution was adjusted to OD=0.2 as an infection liquid.
Sterilization and pre-culturing: mature rice (Nipponbare) seeds were manually shelled, and full seeds without bacterial plaque were selected, and sterilized according to following steps: putting the seeds into a 50 ml sterile centrifuge tube, adding 70% alcohol for disinfection for 30 seconds, pouring out the alcohol, and cleaning the seeds once with sterile water; adding 10-20 ml of 2.6% sodium hypochlorite solution for soaking and sterilizing for 20 minutes, pouring out the sodium hypochlorite solution, and soaking and cleaning the seeds with sterile water for 6-7 times, 3 minutes each time.
Induction and subculturing: the seeds were put on sterile filter paper for drying, and mature embryos were put in an induction culture medium with 12 embryos in each dish; the culture dishes were sealed with a sealing film after the operation was finished, the mature embryos were cultured in the dark at 30° C. for 21-28 days, calluses were transferred into a fresh culture medium, and continuously cultured for about 7-14 days, and spherical calluses with a size of 1-2 mm were taken as infection receptors.
the calluses were inoculated into a centrifuge tube or a culture cup, the prepared Agrobacterium tumefaciens suspension liquid was added for infection for 10 minutes, wherein the calluses were shaken several times; the bacterial solution was poured out, the calluses were taken out, and placed on sterile filter paper to suck out the surface bacterial solution (about 30 minutes); and the calluses were put on sterile filter paper in a culture dish, and cultured in the dark at 25° C. for 2-3 days.
Recovery culturing: the calluses having undergone co-culturing were inoculated in a recovery culture medium, and cultured in the dark at 30° C. for 5-7 days. First round of screening: the calluses were transferred to screening culture media 1 (S1) and cultured in the dark at 30° C. for 14 days. […]

| Molecule | %++&+++ (percentage of plant having medium and high glyphosate resistance to the total number of plants observed) [%] | number of plants denoted by + (low glyphosate resistance) | number of plants denoted by ++ (medium glyphosate resistance) | number of plants denoted by +++ (high glyphosate resistance) | number of plants denoted by − (no glyphosate resistance) |
| --- | --- | --- | --- | --- | --- |
| B1 | 0.0 | 0 | 0 | 0 | 36 |
| B2 | 57.9 | 25 | 37 | 7 | 7 |
| B3 | 16.7 | 20 | 4 | 2 | 10 |
| B4 | 47.1 | 6 | 5 | 3 | 3 |

same assay, conditions: 1× glyphosate dosage

| Molecule | glyphosate resistance / survival of the rice transformed by the EPSPS, in words |
| --- | --- |
| B1 | had no resistance and died |
| B2 | had certain resistance to glyphosate |
| B3 | obviously superior to that of the rice seedlings transformed by G0 |
| B4 | had certain resistance to glyphosate |

same assay, conditions: 2× dosage 2120 g/hectare sprayed to plants surviving 1×; recorded 10 days later

| Molecule | %++&+++ (percentage of plant having medium and high glyphosate resistance to the total number of plants observed) [%] | number of plants denoted by + (low glyphosate resistance) | number of plants denoted by ++ (medium glyphosate resistance) | number of plants denoted by +++ (high glyphosate resistance) | number of plants denoted by − (no glyphosate resistance) |
| --- | --- | --- | --- | --- | --- |
| B1 | 0.0 | 0 | 0 | 0 | 36 |
| B2 | 0.0 | 66 | 0 | 0 | 10 |
| B3 | 0.0 | 19 | 0 | 0 | 17 |
| B4 | 0.0 | 0 | 0 | 0 | 17 |

same assay, conditions: 2× glyphosate dosage

| Molecule | glyphosate resistance / survival of the rice transformed by the EPSPS, in words |
| --- | --- |
| B2 | some of the rice seedlings containing the soybean EPSPS mutants G3 and G5 still survived |
| B4 | all rice seedlings containing the soybean EPSPS mutant G2 died |

same assay, conditions: 5× dosage 5300 g/hectare sprayed to plants surviving 2×; recorded 10 days later

| Molecule | &++&+++ (percentage of plant having medium and high glyphosate resistance to the total number of plants observed) [%] | number of plants denoted by + (low glyphosate resistance) | number of plants denoted by ++ (medium glyphosate resistance) | number of plants denoted by +++ (high glyphosate resistance) | number of plants denoted by − (no glyphosate resistance) |
| --- | --- | --- | --- | --- | --- |
| B1 | 0.0 | 0 | 0 | 0 | 36 |
| B2 | 0.0 | 46 | 0 | 0 | 30 |
| B3 | 0.0 | 5 | 0 | 0 | 31 |
| B4 | 0.0 | 0 | 0 | 0 | 17 |

same assay, conditions: 5× glyphosate dosage

| Molecule | glyphosate resistance / survival of the rice transformed by the EPSPS, in words |
| --- | --- |
| B2 | some of the rice seedlings containing the soybean EPSPS mutants G3 and G5 still survived |
| B4 | all rice seedlings containing the soybean EPSPS mutant G2 died |

same assay, conditions: 20× dosage 21200 g/hectare sprayed to plants surviving 5×; recorded 10 days later

| Molecule | &++&+++ (percentage of plant having medium and high glyphosate resistance to the total number of plants observed) [%] | number of plants denoted by + (low glyphosate resistance) | number of plants denoted by ++ (medium glyphosate resistance) | number of plants denoted by +++ (high glyphosate resistance) | number of plants denoted by − (no glyphosate resistance) |
| --- | --- | --- | --- | --- | --- |
| B1 | 0.0 | 0 | 0 | 0 | 36 |
| B2 | 0.0 | 8 | 0 | 0 | 68 |
| B3 | 0.0 | 0 | 0 | 0 | 36 |
| B4 | 0.0 | 0 | 0 | 0 | 17 |

same assay, conditions: 20× glyphosate dosage

| Molecule | glyphosate resistance / survival of the rice transformed by the EPSPS, in words |
| --- | --- |
| B2 | some of the rice seedlings containing the soybean EPSPS mutants G3 and G5 still survived |
| B4 | all rice seedlings containing the soybean EPSPS mutant G2 died |
